# Experimental data reported in patent publication US12269859B2, “Synthetic immune receptors and methods of use thereof” (Angeles Therapeutics, Inc., priority 2016, dated 2025).
# B1: 012617-S04 (protein)
# chain: MALPVTALLLPLALLLHAARPLEGKPIPNPLLGLDSTGSGEDLKNVFPPEVAVFEPSKAEIAHTQKATLVCLATGFYPDHVELSWWVNGKEVHSGVCTDPQPLKEQPALNDSRYCLSSRLRVSATFWQNPRNHFRCQVQFYGLSENDEWTQDRAKPVTQIVSAEAWGRADCGITSASYHQGVLSATILYEILLGKATLYAVLVSALVLMAMVKRKDSRGRAKRSGSGATNFSLLKQAGDVEENPGPTSMALPVTALLLPLALLLHAARPDIQMTQSPSSLSASVGDRVTITCRASSSVSYMHWYQQKPGKAPKPLIYAPSNLASGVPSRFSGSGSGTDFTLTISSLQPEDFATYYCQQWSFNPPTFGQGTKVEIKRGGGGSGGGGSGGGGSEVQLVESGGGLVQPGGSLRLSCAASGYTFTSYNMHWVRQAPGKGLEWVGAIYPGNGDTSYNQKFKGRFTISVDKSKNTLYLQMNSLRAEDTAVYYCARVVYYSNSYWYFDVWGQGTLVTVSSTREQKLISEEDGSGIQNPDPAVYQLRDSKSSDKSVCLFTDFDSQTNVSQSKDSDVYITDKCVLDMRSMDFKSNSAVAWSNKSDFACANAFNNSIIPEDTFFPSSDVPCDVKLVEKSFETDTNLNFQNLSVIGFRILLLKVAGFNLLMTLRLWSSRAKRSGSGVKQTLNFDLLKLAGDVESNPGPSRGHMTEYKPTVRLATRDDVPRAVRTLAAAFADYPATRHTVDPDRHIERVTELQELFLTRVGLDIGKVWVADDGAAVAVWTTPESVEAGAVFAEIGPRMAELSGSRLAAQQQMEGLLAPHRPKEPAWFLATVGVSPDHQGKGLGSAVVLPGVEAAERAGVPAFLETSAPRNLPFYERLGFTVTADVEVPEGPRTWCMTRKPGA
# B2: 041216-C05 (protein)
# chain: MALPVTALLLPLALLLHAARPDIQMTQSPSSLSASVGDRVTITCRSSQSIVHSVGNTFLEWYQQKPGKAPKLLIYKVSNRFSGVPSRFSGSGSGTDFTLTISSLQPEDFATYYCFQGSQFPYTFGQGTKVEIKRLEGKPIPNPLLGLDSTGSGEDLKNVFPPEVAVFEPSKAEIAHTQKATLVCLATGFYPDHVELSWWVNGKEVHSGVCTDPQPLKEQPALNDSRYCLSSRLRVSATFWQNPRNHFRCQVQFYGLSENDEWTQDRAKPVTQIVSAEAWGRADCGITSASYHQGVLSATILYEILLGKATLYAVLVSALVLMAMVKRKDSRGRAKRSGSGATNFSLLKQAGDVEENPGPTSMDWIWRILFLVGAATGAHSFEEVQLVESGGGLVQPGGSLRLSCAASGYEFSRSWMNWVRQAPGKGLEWVGRIYPGDGDTNYSGKFKGRFTISADTSKNTAYLQMNSLRAEDTAVYYCARDGSSWDWYFDVWGQGTLVTVSSTREQKLISEEDGSGTPFPSLAPPIMLLVDGKQQMVVVCLVLDVAPPGLDSPIWFSAGNGSALDAFTYGPSPATDGTWTNLAHLSLPSEELASWEPLVCHTGPGAEGHSRSTQPMHLSGEASTARTCPQEPLRGTPGGALWLGVLRLLLFKLLLFDLLLTCSCLCDPAGPLPSPATTTRLRALGSHRLHPATETGGREATSSPRPQPRDRRWGDTPPGRKPGSPVRAKRSGSGVKQTLNFDLLKLAGDVESNPGPSRGHMTEYKPTVRLATRDDVPRAVRTLAAAFADYPATRHTVDPDRHIERVTELQELFLTRVGLDIGKVWVADDGAAVAVWTTPESVEAGAVFAEIGPRMAELSGSRLAAQQQMEGLLAPHRPKEPAWFLATVGVSPDHQGKGLGSAVVLPGVEAAERAGVPAFLETSAPRNLPFYERLGFTVTADVEVPEGPRTWCMTRKPGA
# modifications: Polynucleotide encoding a Synthetic Immune Receptor (SIR)
# B3: 081516-I03 (protein)
# chain: MALPVTALLLPLALLLHAARPLEGKPIPNPLLGLDSTGSGEDLKNVFPPEVAVFEPSKAEIAHTQKATLVCLATGFYPDHVELSWWVNGKEVHSGVCTDPQPLKEQPALNDSRYCLSSRLRVSATFWQNPRNHFRCQVQFYGLSENDEWTQDRAKPVTQIVSAEAWGRADCGITSASYHQGVLSATILYEILLGKATLYAVLVSALVLMAMVKRKDSRGRAKRSGSGATNFSLLKQAGDVEENPGPTSTMALPVTALLLPLALLLHAARPDIVMTQSPSSLSASVGDRVTITCKASQSVTNDVAWYQQKPGKAPKLLIYYASNRYTGVPSRFSGSGSGTDFTLTISSLQPEDFATYYCQQDYRSPWTFGGGTKVEIKRGGGGSGGGGSGGGGSQVQLEESGGGVVRPGRSLRLSCAASGFTFSDYGVNWIRQAPGKGLEWVTIIWGDGRTDYNSALKSRFTVSRNNSNNTLSLQMNSLTTEDTAVYYCVRAPGNRAMEYWGQGVLVTVSSTREQKLISEEDLGSGTPFPSLAPPIMLLVDGKQQMVVVCLVLDVAPPGLDSPIWFSAGNGSALDAFTYGPSPATDGTWTNLAHLSLPSEELASWEPLVCHTGPGAEGHSRSTQPMHLSGEASTARTCPQEPLRGTPGGALWLGVLRLLLFKLLLFDLLLTCSCLCDPAGPLPSPATTTRLRALGSHRLHPATETGGREATSSPRPQPRDRRWGDTPPGRKPGSPVRAKRSGSGVKQTLNFDLLKLAGDVESNPGPSRSRGHMTEYKPTVRLATRDDVPRAVRTLAAAFADYPATRHTVDPDRHIERVTELQELFLTRVGLDIGKVWVADDGAAVAVWTTPESVEAGAVFAEIGPRMAELSGSRLAAQQQMEGLLAPHRPKEPAWFLATVGVSPDHQGKGLGSAVVLPGVEAAERAGVPAFLETSAPRNLPFYERLGFTVTADVEVPEGPRTWCMTRKPGA
# modifications: Polynucleotide encoding a Synthetic Immune Receptor (SIR)
# B4: 102715-E07 (protein)
# chain: MALPVTALLLPLALLLHAARPDIQMTQSPSSLSASVGDRVTITCRASQTIWSYLNWYQQRPGKAPNLLIYAASSLQSGVPSRFSGRGSGTDFTLTISSLQAEDFATYYCQQSYSIPQIFGQGTKLEIKLEGKPIPNPLLGLDSTGSGEDLKNVFPPEVAVFEPSKAEIAHTQKATLVCLATGFYPDHVELSWWVNGKEVHSGVCTDPQPLKEQPALNDSRYCLSSRLRVSATFWQNPRNHFRCQVQFYGLSENDEWTQDRAKPVTQIVSAEAWGRADCGITSASYHQGVLSATILYEILLGKATLYAVLVSALVLMAMVKRKDSRGRAKRSGSGATNFSLLKQAGDVEENPGPTSMDWIWRILFLVGAATGAHSFEQVQLQQSGPGLVKPSQTLSLTCAISGDSVSSNSAAWNWIRQSPSRGLEWLGRTYYRSKWYNDYAVSVKSRITINPDTSKNQFSLQLNSVTPEDTAVYYCAREVTGDLEDAFDIWGQGTMVTVSSTREQKLISEEDGSGIQNPDPAVYQLRDSKSSDKSVCLFTDFDSQTNVSQSKDSDVYITDKCVLDMRSMDFKSNSAVAWSNKSDFACANAFNNSIIPEDTFFPSSDVPCDVKLVEKSFETDTNLNFQNLSVIGFRILLLKVAGFNLLMTLRLWSSRAKRSGSGVKQTLNFDLLKLAGDVESNPGPSRGHMTEYKPTVRLATRDDVPRAVRTLAAAFADYPATRHTVDPDRHIERVTELQELFLTRVGLDIGKVWVADDGAAVAVWTTPESVEAGAVFAEIGPRMAELSGSRLAAQQQMEGLLAPHRPKEPAWFLATVGVSPDHQGKGLGSAVVLPGVEAAERAGVPAFLETSAPRNLPFYERLGFTVTADVEVPEGPRTWCMTRKPGA
# modifications: Synthetic Immune Receptor (SIR)
# B5: 050516-V06 (protein)
# chain: MALPVTALLLPLALLLHAARPDIVMTQSPSSLSASVGDRVTITCKASQSVTNDVAWYQQKPGKAPKLLIYYASNRYTGVPSRFSGSGSGTDFTLTISSLQPEDFATYYCQQDYRSPWTFGGGTKVEIKRLEGKPIPNPLLGLDSTGSGEDLKNVFPPEVAVFEPSKAEIAHTQKATLVCLATGFYPDHVELSWWVNGKEVHSGVCTDPQPLKEQPALNDSRYCLSSRLRVSATFWQNPRNHFRCQVQFYGLSENDEWTQDRAKPVTQIVSAEAWGRADCGITSASYHQGVLSATILYEILLGKATLYAVLVSALVLMAMVKRKDSRGRAKRSGSGATNFSLLKQAGDVEENPGPTSMDWIWRILFLVGAATGAHSFEQVQLEESGGGVVRPGRSLRLSCAASGFTFSDYGVNWIRQAPGKGLEWVTIIWGDGRTDYNSALKSRFTVSRNNSNNTLSLQMNSLTTEDTAVYYCVRAPGNRAMEYWGQGVLVTVSSTREQKLISEEDGSGIQNPDPAVYQLRDSKSSDKSVCLFTDFDSQTNVSQSKDSDVYITDKCVLDMRSMDFKSNSAVAWSNKSDFACANAFNNSIIPEDTFFPSSDVPCDVKLVEKSFETDTNLNFQNLSVIGFRILLLKVAGFNLLMTLRLWSSRAKRSGSGVKQTLNFDLLKLAGDVESNPGPSRGHMTEYKPTVRLATRDDVPRAVRTLAAAFADYPATRHTVDPDRHIERVTELQELFLTRVGLDIGKVWVADDGAAVAVWTTPESVEAGAVFAEIGPRMAELSGSRLAAQQQMEGLLAPHRPKEPAWFLATVGVSPDHQGKGLGSAVVLPGVEAAERAGVPAFLETSAPRNLPFYERLGFTVTADVEVPEGPRTWCMTRKPGA
# modifications: Synthetic Immune Receptor (SIR)
# B6: 091216-A03 (protein)
# chain: MALPVTALLLPLALLLHAARPLEGKPIPNPLLGLDSTGSGEDLKNVFPPEVAVFEPSKAEIAHTQKATLVCLATGFYPDHVELSWWVNGKEVHSGVCTDPQPLKEQPALNDSRYCLSSRLRVSATFWQNPRNHFRCQVQFYGLSENDEWTQDRAKPVTQIVSAEAWGRADCGITSASYHQGVLSATILYEILLGKATLYAVLVSALVLMAMVKRKDSRGRAKRSGSGATNFSLLKQAGDVEENPGPTSTMALPVTALLLPLALLLHAARPDIQMTQSPSSLSASVGDRVTITCRSSQSIVHSVGNTFLEWYQQKPGKAPKLLIYKVSNRFSGVPSRFSGSGSGTDFTLTISSLQPEDFATYYCFQGSQFPYTFGQGTKVEIKRGGGGSGGGGSGGGGSEVQLVESGGGLVQPGGSLRLSCAASGYEFSRSWMNWVRQAPGKGLEWVGRIYPGDGDTNYSGKFKGRFTISADTSKNTAYLQMNSLRAEDTAVYYCARDGSSWDWYFDVWGQGTLVTVSSTREQKLISEEDGSGIQNPDPAVYQLRDSKSSDKSVCLFTDFDSQTNVSQSKDSDVYITDKCVLDMRSMDFKSNSAVAWSNKSDFACANAFNNSIIPEDTFFPSSDVPCDVKLVEKSFETDTNLNFQNLSVIGFRILLLKVAGFNLLMTLRLWSSRAKRSGSGVKQTLNFDLLKLAGDVESNPGPSRGHMTEYKPTVRLATRDDVPRAVRTLAAAFADYPATRHTVDPDRHIERVTELQELFLTRVGLDIGKVWVADDGAAVAVWTTPESVEAGAVFAEIGPRMAELSGSRLAAQQQMEGLLAPHRPKEPAWFLATVGVSPDHQGKGLGSAVVLPGVEAAERAGVPAFLETSAPRNLPFYERLGFTVTADVEVPEGPRTWCMTRKPGA
# modifications: Synthetic Immune Receptor (SIR)
# Tested on: target antigen-expressing cell line
# Assay: Jurkat NFAT-GFP assay, coculture with target cell lines expressing the respective target antigen (summary Table 10A)
# Assay type: cell-based, human
# Parameters: key: The signs +/−, +, 2+ etc. after the name of the cell lines indicate the relative degree of positivity on the Jurkat-NFAT-GFP assay as measured by the % GFP positive cells; +: relative degree of positivity on the Jurkat-NFAT-GFP assay as measured by the % GFP positive cells; 2+: relative degree of positivity on the Jurkat-NFAT-GFP assay as measured by the % GFP positive cells
# Conditions: SIR-expressing Jurkat-NFAT-GFP cells cocultured with NALM6; relative % GFP positive cells
# Procedure, shortened: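 Readout is % GFP+ cells by FACS, graded +/− to 2+ relative to parental reporter cells. Jurkat-NFAT-GFP cells stably transduced with SIR constructs (puromycin-selected) were mixed with target-antigen-expressing cell lines at roughly 1:2 effector:target and cocultured ~4–18 h.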
row,Molecule,NFAT-GFP ASSAY Positive Cell lines: NALM6
1,B1,(+/−)
2,B2,(+/−)

# Same assay, conditions: SIR-expressing Jurkat-NFAT-GFP cells cocultured with RAJI; relative % GFP positive cells
row,Molecule,NFAT-GFP ASSAY Positive Cell lines: RAJI
1,B2,"RAJI (+/−), NALM6"
2,B3,RAJI (+/−)
3,B4,RAJI (+)
4,B5,RAJI (+/−)
5,B6,RAJI (+)
